The source of these data is paper PMC3903776, “Structural Characterization of the Mechanosensitive Channel Candidate MCA2 from Arabidopsis thaliana” (PLoS ONE, 2014).

Broadly, the stoichiometry N is the number of molecules, sites or subunits per partner or assembly.

The data set deals with the molecule itself. Nature of the data set: cross-linking; purified MCA2-6H in PBS with 4% APFO; 10 mM glutaraldehyde, room temperature, up to 30 min, stopped with 50 mM Tris-HCl pH 8.0; reducing SDS-PAGE, CBB staining.

B1: MCA2-6H (Arabidopsis thaliana MCA2 with a 6xHis tag fused to the carboxyl terminus) (natural protein, UniProt Q3EBY6 1-416, looked up)
chain: MANSWDQLGEIASVAQLTGIDALKLIGMIVNAANTARMHKKNCRQFAHHLKLIRNLLEQIKNSEMNQRSEILEPLQGLDDALRRSYILVKSCQEKSYLYLLAMGWNIVNQFEKAQNEIDLFLKIVPLINMADNARIRERLEAIERDQREYTLDEEDRKVQDVILKQESTREAATSVLKKTLSRSYPNMGFCEALKTEEEKLQLELQRSRARYDADQCEVIQRLIDVTQTAATVEPNLEKVLTKKEELTSSKKRDDLYDTDSSSIRADSRSTSYVSSGHELLSGRSLQHRGNWHADLLDCCSEPCLCLKTLFFPCGTLAKISTVATSRQISSTEVCKNLIVYSLILSCCCYTCCIRKKLRKTLNITGGCIDDFLSHLMCCCCALVQELREVEIHRASYGTEKSNKEMSPPTPQFMEE
notes: MCA2 of Arabidopsis thaliana, 416 amino acid residues; source: Sf9 cells, baculovirus (Bac-to-Bac), membrane fraction solubilised in APFO, purified (His GraviTrap, Superdex 200 SEC); not shown: 6xHis, C-terminal, kept
On to B1, for which the “stoichiometry N” value was found to be 4.
